Experimental data reported in US20090149389A1 (PURDUE RESEARCH FOUNDATION, published 2009).

T1: PKG1β (h) (human (h), UniProt Q13976-2 1-686)
T1 sequence (looked up): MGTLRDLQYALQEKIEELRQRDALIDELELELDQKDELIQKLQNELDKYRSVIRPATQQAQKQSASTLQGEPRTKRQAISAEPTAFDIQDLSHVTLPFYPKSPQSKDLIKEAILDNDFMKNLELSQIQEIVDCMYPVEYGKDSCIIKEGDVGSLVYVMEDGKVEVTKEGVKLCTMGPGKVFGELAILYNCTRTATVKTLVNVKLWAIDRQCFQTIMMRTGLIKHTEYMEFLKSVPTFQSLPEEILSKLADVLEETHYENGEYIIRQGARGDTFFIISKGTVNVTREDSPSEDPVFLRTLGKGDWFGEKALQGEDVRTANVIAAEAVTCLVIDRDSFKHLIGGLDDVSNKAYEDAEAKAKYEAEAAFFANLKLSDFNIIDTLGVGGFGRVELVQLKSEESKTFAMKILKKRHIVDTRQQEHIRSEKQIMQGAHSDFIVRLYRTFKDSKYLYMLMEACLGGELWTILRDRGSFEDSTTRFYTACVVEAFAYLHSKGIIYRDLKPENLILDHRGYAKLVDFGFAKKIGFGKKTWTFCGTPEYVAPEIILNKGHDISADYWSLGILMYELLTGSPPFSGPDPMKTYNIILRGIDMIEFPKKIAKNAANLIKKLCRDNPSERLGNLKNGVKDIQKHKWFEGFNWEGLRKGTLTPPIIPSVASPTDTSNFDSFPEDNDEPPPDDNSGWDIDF

T2: PhKγ2 (h) (human (h), UniProt P15735 1-406)
T2 sequence (looked up): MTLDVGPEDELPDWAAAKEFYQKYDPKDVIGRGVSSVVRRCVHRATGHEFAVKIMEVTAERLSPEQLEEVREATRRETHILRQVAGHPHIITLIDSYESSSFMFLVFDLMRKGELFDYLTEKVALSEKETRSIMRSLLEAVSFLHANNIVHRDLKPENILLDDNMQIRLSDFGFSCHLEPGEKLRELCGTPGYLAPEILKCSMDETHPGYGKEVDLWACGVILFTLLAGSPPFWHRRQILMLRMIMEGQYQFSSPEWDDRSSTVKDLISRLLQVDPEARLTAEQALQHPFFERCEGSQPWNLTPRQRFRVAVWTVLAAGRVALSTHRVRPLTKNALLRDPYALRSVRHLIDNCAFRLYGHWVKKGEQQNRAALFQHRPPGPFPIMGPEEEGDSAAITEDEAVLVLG

T3: CHK1 (h) (human (h), UniProt O14757 1-476)
T3 sequence (looked up): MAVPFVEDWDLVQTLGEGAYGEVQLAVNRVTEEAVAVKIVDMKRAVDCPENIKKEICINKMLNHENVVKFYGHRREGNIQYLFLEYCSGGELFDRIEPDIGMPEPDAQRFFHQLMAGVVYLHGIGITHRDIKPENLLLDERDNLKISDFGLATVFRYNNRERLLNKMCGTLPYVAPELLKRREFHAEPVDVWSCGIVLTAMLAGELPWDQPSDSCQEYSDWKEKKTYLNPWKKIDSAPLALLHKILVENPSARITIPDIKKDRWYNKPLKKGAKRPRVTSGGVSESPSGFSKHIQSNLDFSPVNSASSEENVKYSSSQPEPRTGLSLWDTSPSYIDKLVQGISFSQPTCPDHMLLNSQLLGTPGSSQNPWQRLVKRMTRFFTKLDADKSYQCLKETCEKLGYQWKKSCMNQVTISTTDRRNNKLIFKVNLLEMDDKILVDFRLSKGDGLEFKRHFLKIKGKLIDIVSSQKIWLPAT

T4: PRAK (UniProt Q8IW41 1-473, limits assumed)
T4 sequence (looked up): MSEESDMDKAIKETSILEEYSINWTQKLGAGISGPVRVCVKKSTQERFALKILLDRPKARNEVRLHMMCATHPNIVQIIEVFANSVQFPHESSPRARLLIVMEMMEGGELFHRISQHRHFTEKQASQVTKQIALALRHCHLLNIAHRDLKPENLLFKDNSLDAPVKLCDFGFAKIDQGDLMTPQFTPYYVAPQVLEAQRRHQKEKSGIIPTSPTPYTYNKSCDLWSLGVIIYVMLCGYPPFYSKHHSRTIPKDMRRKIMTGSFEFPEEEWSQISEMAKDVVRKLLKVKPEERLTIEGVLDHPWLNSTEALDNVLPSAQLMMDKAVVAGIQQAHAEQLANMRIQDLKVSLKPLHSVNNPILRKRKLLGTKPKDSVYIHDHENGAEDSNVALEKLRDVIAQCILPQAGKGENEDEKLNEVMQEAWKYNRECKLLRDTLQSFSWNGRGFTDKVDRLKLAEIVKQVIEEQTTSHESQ


What was measured:
Assay in all cases: cell-based or functional assay
PKG1β (h) = molecular target: T1, PKG1β (h)
PDGFRβ (h) = PDGFRβ (h) (human (h), UniProt P09619 558-1106, limits assumed)
Chain of PDGFRβ (h) (P09619 558-1106 limits assumed): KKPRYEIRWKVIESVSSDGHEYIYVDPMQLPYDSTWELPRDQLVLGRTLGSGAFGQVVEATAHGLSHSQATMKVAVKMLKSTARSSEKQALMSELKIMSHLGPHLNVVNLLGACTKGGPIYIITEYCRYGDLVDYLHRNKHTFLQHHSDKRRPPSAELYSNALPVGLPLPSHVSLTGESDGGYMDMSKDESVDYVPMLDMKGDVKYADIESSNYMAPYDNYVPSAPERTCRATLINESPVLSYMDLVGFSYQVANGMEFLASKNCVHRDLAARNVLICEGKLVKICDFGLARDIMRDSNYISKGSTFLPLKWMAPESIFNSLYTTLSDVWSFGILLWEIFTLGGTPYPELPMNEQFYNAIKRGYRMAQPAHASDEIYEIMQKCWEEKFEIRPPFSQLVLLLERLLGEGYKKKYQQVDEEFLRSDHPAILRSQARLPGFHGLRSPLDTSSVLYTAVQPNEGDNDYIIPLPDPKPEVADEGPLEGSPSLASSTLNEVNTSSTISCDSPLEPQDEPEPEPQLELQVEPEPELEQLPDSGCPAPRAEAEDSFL

PKB β (h) = PKB β (h) (human (h), UniProt P31751 1-481, limits assumed)
Chain of PKB β (h) (P31751 whole entry): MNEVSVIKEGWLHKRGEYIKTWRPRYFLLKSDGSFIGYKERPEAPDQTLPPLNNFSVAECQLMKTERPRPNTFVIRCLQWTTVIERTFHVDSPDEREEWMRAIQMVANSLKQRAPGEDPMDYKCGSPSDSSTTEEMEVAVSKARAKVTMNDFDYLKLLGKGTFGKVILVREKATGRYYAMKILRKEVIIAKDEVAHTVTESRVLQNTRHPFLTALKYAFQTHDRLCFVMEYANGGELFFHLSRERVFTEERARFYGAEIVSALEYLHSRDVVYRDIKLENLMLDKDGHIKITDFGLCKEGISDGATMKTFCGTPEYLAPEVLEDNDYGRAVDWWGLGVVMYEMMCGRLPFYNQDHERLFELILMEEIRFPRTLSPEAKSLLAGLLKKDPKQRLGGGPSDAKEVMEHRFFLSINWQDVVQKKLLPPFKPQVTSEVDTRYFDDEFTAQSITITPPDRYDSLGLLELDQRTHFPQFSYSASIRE

GSK3β (h) = GSK3β (h) (human (h), UniProt P49841 1-420)
Chain of GSK3β (h) (P49841 whole entry): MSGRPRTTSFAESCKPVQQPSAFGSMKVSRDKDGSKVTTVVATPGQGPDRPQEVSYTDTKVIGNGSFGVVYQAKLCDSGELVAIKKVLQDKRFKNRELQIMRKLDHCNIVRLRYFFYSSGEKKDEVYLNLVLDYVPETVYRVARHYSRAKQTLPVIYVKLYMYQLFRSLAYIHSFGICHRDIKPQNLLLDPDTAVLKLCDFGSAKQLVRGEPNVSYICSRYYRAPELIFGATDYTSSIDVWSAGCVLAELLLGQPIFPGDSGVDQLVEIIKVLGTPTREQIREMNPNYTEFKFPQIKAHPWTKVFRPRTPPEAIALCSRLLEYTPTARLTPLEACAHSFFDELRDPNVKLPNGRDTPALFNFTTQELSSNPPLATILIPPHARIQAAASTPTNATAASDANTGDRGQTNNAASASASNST

ROCK-1 (h) = ROCK-1 (h) (human (h), UniProt Q13464 17-535, limits assumed)
Chain of ROCK-1 (h) (Q13464 17-535 limits assumed): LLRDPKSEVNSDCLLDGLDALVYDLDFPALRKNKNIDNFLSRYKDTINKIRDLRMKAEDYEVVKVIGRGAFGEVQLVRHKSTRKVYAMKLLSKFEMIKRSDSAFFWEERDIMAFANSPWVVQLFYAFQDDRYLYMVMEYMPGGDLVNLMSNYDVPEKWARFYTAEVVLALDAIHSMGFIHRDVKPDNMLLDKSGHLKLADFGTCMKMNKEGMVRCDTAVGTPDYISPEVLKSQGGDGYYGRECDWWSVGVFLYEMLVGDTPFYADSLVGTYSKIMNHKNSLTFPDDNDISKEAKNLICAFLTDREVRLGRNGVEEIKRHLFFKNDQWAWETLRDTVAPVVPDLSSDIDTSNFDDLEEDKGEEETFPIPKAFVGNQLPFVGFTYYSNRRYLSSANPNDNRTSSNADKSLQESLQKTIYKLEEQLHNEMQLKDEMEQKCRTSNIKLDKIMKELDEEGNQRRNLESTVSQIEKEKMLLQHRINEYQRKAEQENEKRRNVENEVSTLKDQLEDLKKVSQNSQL

CaMKI (h) = CaMKI (h) (human (h), UniProt Q14012 1-370, limits assumed)
Chain of CaMKI (h) (Q14012 whole entry): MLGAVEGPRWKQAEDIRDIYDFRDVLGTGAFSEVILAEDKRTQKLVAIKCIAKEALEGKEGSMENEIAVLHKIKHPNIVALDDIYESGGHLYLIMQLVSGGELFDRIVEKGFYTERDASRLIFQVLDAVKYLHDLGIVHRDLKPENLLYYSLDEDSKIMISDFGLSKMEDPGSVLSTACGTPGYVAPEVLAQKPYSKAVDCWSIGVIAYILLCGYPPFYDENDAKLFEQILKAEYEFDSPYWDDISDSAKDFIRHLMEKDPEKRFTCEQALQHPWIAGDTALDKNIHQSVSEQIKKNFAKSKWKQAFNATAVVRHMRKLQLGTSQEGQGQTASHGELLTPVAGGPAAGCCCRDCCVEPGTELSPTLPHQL

CDKI/cyclinB (h) = CDKI/cyclinB (h) (human (h), UniProt P06493 1-297)
Chain of CDKI/cyclinB (h) (P06493 whole entry): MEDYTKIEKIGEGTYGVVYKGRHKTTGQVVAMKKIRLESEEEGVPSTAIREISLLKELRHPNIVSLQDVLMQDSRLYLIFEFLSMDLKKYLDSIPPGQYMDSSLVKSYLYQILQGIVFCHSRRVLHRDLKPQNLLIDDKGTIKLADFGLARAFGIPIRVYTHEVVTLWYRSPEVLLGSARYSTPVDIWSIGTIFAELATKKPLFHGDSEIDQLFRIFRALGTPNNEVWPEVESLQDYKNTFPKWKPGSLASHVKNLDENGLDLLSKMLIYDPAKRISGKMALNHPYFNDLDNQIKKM

MEKI (h) = MEKI (h) (human (h), UniProt Q02750 1-393)
PhKγ2 (h) = molecular target: T2, PhKγ2 (h)
FGFR1 (h) = FGFR1 (h) (human (h), UniProt P11362 456-765, limits assumed)
Chain of FGFR1 (h) (P11362 456-765 limits assumed): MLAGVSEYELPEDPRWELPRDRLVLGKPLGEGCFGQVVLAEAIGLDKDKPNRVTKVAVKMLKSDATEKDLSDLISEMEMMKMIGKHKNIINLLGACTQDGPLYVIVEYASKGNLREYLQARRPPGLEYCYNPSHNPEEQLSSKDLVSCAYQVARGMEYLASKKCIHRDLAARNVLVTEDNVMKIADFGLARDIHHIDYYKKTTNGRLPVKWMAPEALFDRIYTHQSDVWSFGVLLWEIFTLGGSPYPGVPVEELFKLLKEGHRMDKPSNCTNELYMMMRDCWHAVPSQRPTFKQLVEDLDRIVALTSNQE

IGF-IR (h) = IGF-IR (h) (human (h), UniProt P08069 959-1367, limits assumed)
Chain of IGF-IR (h) (P08069 959-1367 limits assumed): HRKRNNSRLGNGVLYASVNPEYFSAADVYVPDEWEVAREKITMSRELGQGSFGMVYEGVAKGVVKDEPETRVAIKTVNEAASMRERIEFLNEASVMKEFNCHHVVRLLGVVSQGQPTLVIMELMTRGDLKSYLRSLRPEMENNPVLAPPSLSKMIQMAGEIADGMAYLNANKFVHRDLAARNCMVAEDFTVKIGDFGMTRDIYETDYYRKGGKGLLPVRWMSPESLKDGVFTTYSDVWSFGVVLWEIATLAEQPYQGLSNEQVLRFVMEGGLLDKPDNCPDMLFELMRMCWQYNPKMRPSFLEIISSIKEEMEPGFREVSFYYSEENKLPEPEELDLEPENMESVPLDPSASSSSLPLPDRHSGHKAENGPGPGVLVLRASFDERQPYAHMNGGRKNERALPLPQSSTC

CHK1 (h) = molecular target: T3, CHK1 (h)
PRAK = molecular target: T4, PRAK
Abl (h) = Abl (h) (human (h), UniProt P00519 27-1130, limits assumed)
Chain of Abl (h) (P00519 27-1130 limits assumed): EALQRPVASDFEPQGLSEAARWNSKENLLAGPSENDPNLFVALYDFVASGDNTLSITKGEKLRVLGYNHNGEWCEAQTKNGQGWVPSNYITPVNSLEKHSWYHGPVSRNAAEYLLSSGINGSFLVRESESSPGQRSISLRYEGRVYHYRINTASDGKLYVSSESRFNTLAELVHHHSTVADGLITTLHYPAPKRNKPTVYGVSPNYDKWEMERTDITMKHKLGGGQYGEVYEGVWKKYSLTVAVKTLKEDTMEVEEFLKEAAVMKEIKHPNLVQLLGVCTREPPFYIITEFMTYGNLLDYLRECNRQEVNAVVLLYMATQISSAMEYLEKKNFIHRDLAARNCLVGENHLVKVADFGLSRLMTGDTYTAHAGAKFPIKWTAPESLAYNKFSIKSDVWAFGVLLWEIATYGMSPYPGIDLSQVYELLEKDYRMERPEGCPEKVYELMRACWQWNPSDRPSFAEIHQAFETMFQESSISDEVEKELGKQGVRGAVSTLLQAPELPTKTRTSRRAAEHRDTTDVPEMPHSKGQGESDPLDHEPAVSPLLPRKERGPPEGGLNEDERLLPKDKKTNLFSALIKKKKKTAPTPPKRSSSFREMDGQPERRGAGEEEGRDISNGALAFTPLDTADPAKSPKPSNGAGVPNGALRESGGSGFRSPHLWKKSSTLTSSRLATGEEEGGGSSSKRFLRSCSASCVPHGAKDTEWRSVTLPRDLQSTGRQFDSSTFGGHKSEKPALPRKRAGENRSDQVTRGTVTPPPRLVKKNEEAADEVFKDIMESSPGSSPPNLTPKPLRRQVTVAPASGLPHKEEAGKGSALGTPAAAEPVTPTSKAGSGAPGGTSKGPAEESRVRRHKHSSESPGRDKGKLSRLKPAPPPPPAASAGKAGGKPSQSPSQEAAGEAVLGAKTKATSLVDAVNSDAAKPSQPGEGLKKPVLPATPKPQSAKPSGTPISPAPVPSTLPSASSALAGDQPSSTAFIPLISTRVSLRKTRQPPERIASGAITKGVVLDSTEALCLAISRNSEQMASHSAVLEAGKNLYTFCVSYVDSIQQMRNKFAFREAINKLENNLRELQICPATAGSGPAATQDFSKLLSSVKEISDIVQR

TrkA (h) = TrkA (h) (human (h), UniProt P04629 441-796, limits assumed)
Chain of TrkA (h) (P04629 441-796 limits assumed): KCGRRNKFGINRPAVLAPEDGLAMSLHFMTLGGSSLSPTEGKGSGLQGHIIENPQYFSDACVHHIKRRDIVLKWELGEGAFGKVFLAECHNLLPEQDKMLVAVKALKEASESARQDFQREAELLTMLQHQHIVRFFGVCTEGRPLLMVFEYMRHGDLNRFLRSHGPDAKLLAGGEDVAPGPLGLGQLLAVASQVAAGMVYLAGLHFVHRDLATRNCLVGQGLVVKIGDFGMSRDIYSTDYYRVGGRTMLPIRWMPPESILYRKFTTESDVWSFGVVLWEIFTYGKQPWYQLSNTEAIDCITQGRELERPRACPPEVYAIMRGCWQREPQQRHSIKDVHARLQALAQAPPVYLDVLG

Row | Binder | Profile-1 @ = 100 µm (kinase profiler assay) (PKG1β (h)) | Profile-1 @ = 100 µm (kinase profiler assay) (PDGFRβ (h)) | Profile-1 @ = 100 µm (kinase profiler assay) (PKB β (h)) | Profile-1 @ = 100 µm (kinase profiler assay) (GSK3β (h)) | Profile-1 @ = 100 µm (kinase profiler assay) (ROCK-1 (h)) | Profile-1 @ = 100 µm (kinase profiler assay) (CaMKI (h)) | Profile-1 @ = 100 µm (kinase profiler assay) (CDKI/cyclinB (h)) | Profile-1 @ = 100 µm (kinase profiler assay) (MEKI (h)) | Profile-1 @ = 100 µm (kinase profiler assay) (PhKγ2 (h)) | Profile-1 @ = 100 µm (kinase profiler assay) (FGFR1 (h)) | Profile-1 @ = 100 µm (kinase profiler assay) (IGF-IR (h)) | Profile-1 @ = 100 µm (kinase profiler assay) (CHK1 (h)) | Profile-1 @ = 100 µm (kinase profiler assay) (PRAK) | Profile-1 @ = 30 µm (kinase profiler assay) (Abl (h)) | Profile-1 @ = 30 µm (kinase profiler assay) (TrkA (h))
1 | FAKLAARLYRKALARQLGVAA | 15 | 92 | 16 | 188 | 25 | 0 | 36 | 68 | 20 | 22 | 69 | 54 | 131 |  | 
2 | WLRRIKAWLRRIKALNRQLGVAA |  |  |  |  |  |  |  |  |  |  |  |  |  | 24 | 6
